Experiments:
Test in all cases: ITC
[1] = target: Jun bZIP K258A;Fos bZIP R158A (human;human, UniProt P05412;P01100 252-315;137-200, K258A|R158A)
[2] = target: Jun bZIP R261A;Fos bZIP R158A (human;human, UniProt P05412;P01100 252-315;137-200, R261A|R158A)
[3] = target: Jun bZIP R259A;Fos bZIP K148A (human;human, UniProt P05412;P01100 252-315;137-200, R259A|K148A)
Jun-Jun bZIP R259A = Jun-Jun bZIP R259A (human, UniProt P05412 252-315, R259A)
[4] = target: Jun bZIP K258A;Fos bZIP K148A (human;human, UniProt P05412;P01100 252-315;137-200, K258A|K148A)
Jun bZIP K258A;Fos bZIP K148A, sequence (P05412 252-315 K258A, chain 1 of 2): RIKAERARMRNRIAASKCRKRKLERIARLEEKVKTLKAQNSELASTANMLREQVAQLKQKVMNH
Jun bZIP K258A;Fos bZIP K148A, sequence (P01100 137-200 K148A, chain 2 of 2): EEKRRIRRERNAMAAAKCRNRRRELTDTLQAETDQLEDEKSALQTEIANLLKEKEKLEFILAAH

Jun bZIP R259A;Fos bZIP K148A, sequence (P05412 252-315 R259A, chain 1 of 2): as the sequence (P05412 252-315 K258A, chain 1 of 2) above, with A7K, R8A counted along it
Jun bZIP R259A;Fos bZIP K148A, sequence (P01100 137-200 K148A, chain 2 of 2): as the sequence (P01100 137-200 K148A, chain 2 of 2) above
Jun-Jun bZIP R259A, sequence (P05412 252-315 R259A): as the sequence (P05412 252-315 K258A, chain 1 of 2) above, with A7K, R8A counted along it
Jun bZIP K258A;Fos bZIP R158A, sequence (P05412 252-315 K258A, chain 1 of 2): as the sequence (P05412 252-315 K258A, chain 1 of 2) above
Jun bZIP K258A;Fos bZIP R158A, sequence (P01100 137-200 R158A, chain 2 of 2): as the sequence (P01100 137-200 K148A, chain 2 of 2) above, with A12K, R22A counted along it
Jun bZIP R261A;Fos bZIP R158A, sequence (P05412 252-315 R261A, chain 1 of 2): as the sequence (P05412 252-315 K258A, chain 1 of 2) above, with A7K, R10A counted along it
Jun bZIP R261A;Fos bZIP R158A, sequence (P01100 137-200 R158A, chain 2 of 2): as the sequence (P01100 137-200 K148A, chain 2 of 2) above, with A12K, R22A counted along it

B1: TRE duplex 15-mer (dsDNA)
DNA 1: CGCGTGACTCACCCC
DNA 2: GGGGTGAGTCACGCG
Work on B1 yielded a Kd [1] of 960 ± 60 nM, a Kd [2] of 760 ± 20 nM and a Kd [3] of 2260 ± 180 nM. It also gave a Kd (Jun-Jun bZIP R259A) of 5250 ± 60 nM and a Kd [4] of 660 ± 20 nM.

Reference: article PMC3154423
